Key:
[1] = molecular target: T1, FLAG-tagged 88C receptor (human, UniProt P51681 1-352); test: cell-based or functional assay
T1 sequence: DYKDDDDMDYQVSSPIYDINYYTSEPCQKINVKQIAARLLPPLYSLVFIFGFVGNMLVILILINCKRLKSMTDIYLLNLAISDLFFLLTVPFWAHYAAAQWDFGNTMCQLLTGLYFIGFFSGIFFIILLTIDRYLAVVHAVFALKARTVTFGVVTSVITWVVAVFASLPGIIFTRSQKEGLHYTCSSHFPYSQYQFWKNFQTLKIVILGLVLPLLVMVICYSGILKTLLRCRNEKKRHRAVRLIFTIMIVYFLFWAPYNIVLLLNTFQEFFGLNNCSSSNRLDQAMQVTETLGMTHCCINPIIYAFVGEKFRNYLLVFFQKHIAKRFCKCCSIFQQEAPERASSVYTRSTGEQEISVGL

[2] = molecular target: T1, FLAG-tagged 88C receptor; test: competition of unlabelled ligand with 1.5 nM 125I-MIP-1β on HEK-293 cells expressing FLAG-tagged 88C
Source text: (§1) Another assay for receptor interaction with chemokines was a modification of the binding assay described by Ernst et al. *J. Immunol.* 152:3541–3549 (1994). MIP-1β as labeled using the Bolton and Hunter reagent (di-iodide, NEN, Wilmington, Del.), according to the manufacturer's instructions. Unconjugated iodide was separated from labeled protein by elution using a PD-10 column (Pharmacia) equilibrated with PBS and BSA (1% w/v). The specific activity was typically 2200 Ci/mmole. Equilibrium binding was performed by adding ^125I-labeled ligand with or without a 100-fold excess of unlabeled ligand, to 5×10^5 HEK-293 cells transfected with 88C tagged with the FLAG epitope in polypropylene tubes in a total volume of 300 µl (50 mM HEPES pH 7.4, 1 mM CaCl_2, MgCl_2, 0.5% BSA) and incubating for 90 minutes at 27° C. with shaking at 150 rpm. […] After washing, the filters were removed and bound ligand was quantitated by counting gamma emissions. Ligand binding by competition with unlabeled ligand was determined by incubation of 5×10^5 transfected cells (as above) with 1.5 nM of radiolabeled ligand and the indicated concentrations of unlabeled ligand. The samples were collected, washed and counted as above. The data was analyzed using the curve-fitting program Prism (GraphPad Inc., San Diego, Calif.) and the iterative non-linear regression program, LIGAND (PM220).

[3] = molecular target: T1, FLAG-tagged 88C receptor; test: equilibrium binding of 125I-MIP-1β to HEK-293 cells expressing FLAG-tagged 88C, Scatchard analysis
Source text: as §1

EC50 of inositol phosphate formation (phospholipase C assay), COS-7 cells co-transfected with Gqi5 [1]: 6 nM
IC50 [2]: 7.4 nM
Kd [3]: 1.6 nM
B1: MIP-1β (ligand, UniProt P13236 24-92, looked up)
chain: APMGSDPPTACCFSYTARKLPRNFVVDYYETSSLCSQPAVVFQTKRSKQVCADPSESWVQEYVYDLELN
notes: also called MIP-1beta; radiolabeled MIP-1β
